According to PMC8315086 (Cell Discovery, 2021):

Assays:
Details in all cases: both partners purified
[1] = target: SARS-CoV-2 S1-hFc protein (SARS-CoV-2); test: ELISA
[2] = target: SARS-CoV-2 S1-His protein (SARS-CoV-2); test: ELISA
[3] = target: T1, recombinant SARS-CoV-2 S1 protein (Kactus Biosystems) (SARS-CoV-2, original wild type …, UniProt P0DTC2); test: SPR
[4] = target: T1, recombinant SARS-CoV-2 S1 protein …; test: SPR; remark: listed apart in the source

B1: 2B11 monoclonal antibody (full-length human IgG1) (antibody, V domains shown)
VH: EVQLVESGGGLVQPGGSLRLSCAASEITVSSNYMNWVRQAPGKGLEWVSVIYSGGTTYYADSVKGRFTISRDNSENTLYLQMNSLRAEDTAVYYCARDLMEVGGMDVWGQGTTVTVSS
VL: LPVLTQPPSASGTPGQRVTISCSGSSSNVENDNVNWFQQQVPGSTPKLVIYNDRLRPSGVPDRFSGSKSGTSAYLAISGLQSEDEADYYCVAWDASLQSYVFGTGTKVTVL
IC50 [1]: 2.79 nM | EC50 [2]: 0.051 nM | Kd [3]: 4.76 nM | Kd [4]: 4.67 nM
